Measurements published in US6858210B1, “Therapeutic and diagnostic domain 1 β2GPI polypeptides and methods of using same” (La Jolla Pharmaceutical Co., priority 1998, dated 2005).
Read-outs that look alike come from different tables or passages of the source.

Columns and labels:
[1] = test system: affinity purified β2GPI-dependent antiphospholipid antibody; test: Direct binding ELISA, nickel chelate-coated wells charged with recombinant β2GPI proteins (no cardiolipin); set-up: species or system human; conditions: O.D. at 550 nm
Method in brief: (§1)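 His-tagged recombinant β2GPI mutants captured on nickel chelate wells in serial dilution (2 h, room temperature), no anionic phospholipid; GST-6his as negative control. Affinity-purified patient antibodies (11 patients) or rabbit anti-β2GPI detected by alkaline phosphatase anti-IgG, OD 550 nm.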

[2] = test system: affinity purified β2GPI-dependent antiphospholipid antibody; test: Competitive inhibition ELISA: recombinant β2GPI proteins compete for antibody binding to coated full length recombinant β2GPI; set-up: species or system human; conditions: for IC50: read-out: 50% (concentration to give 50% inhibition)
Method in brief: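 Wells coated with full-length recombinant β2GPI (10 μg/ml, pH 9.5) and milk-blocked. Serially diluted recombinant β2GPI proteins were co-incubated with a fixed concentration of patient antibody for 1 h at 37 °C. Bound IgG detected with alkaline phosphatase anti-human IgG at OD550; percent inhibition is background-corrected against inhibitor-free wells.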

rabbit anti-β2GPI = test: Direct binding ELISA, nickel chelate-coated wells, rabbit antibody; conditions: O.D. at 550 nm
Method in brief: as §1

B1: -2345: recombinant β2GPI deletion mutant with domains 2-5 (protein)
chain: GRTPRVCPFAGILENGAVRYTTFEYPNTISFSCNTGFYLNGADSAKCTEEGKWSPELPVCAPIICPPPSIPTFATLRVYKPSAGNNSLYRDTAVFECLPQHAMFGNDTITCTTHGNWTKLPECREVKCPFPSRPDNGFVNYPAKPTLYYKDKATFGCHDGYSLDGPEEIECTKLGNWSAMPSCKASCKLPVKKATVVYQGERVKIQEKFKNGMLHGDKVSFFCKNKEKKCSYTEDAQCIDGTIEVPKCFKEHSSLAFWKTDASDVKPCGHHHHHH
For B1, the “Maximum O.D.” value ([1]; Ab 6203) was 0.074, the “Maximum O.D.” value ([1]; Ab 6501) was 0.018 and the “Maximum O.D.” value ([1]; Ab 6626) was 0.008. For the same molecule, the “Maximum O.D.” value ([1]; Ab 6632) was 0.031, the “Maximum O.D.” value ([1]; Ab 6641) was 0.045 and the “Maximum O.D.” value ([1]; Ab 6644) was 0.041. The “Maximum O.D.” value ([1]; Ab 6652) was 0.008, the “Maximum O.D.” value ([1]; Ab 6701) was 0.002 and the “Maximum O.D.” value ([1]; Ab 7008) was 0.019. The “Maximum O.D.” value ([1]; Ab 7015) was 0.114, the “Maximum O.D.” value ([1]; Ab 7101) was 0.056 and the “Max (maximum inhibition observed at concentrations tested)” value ([2]; Ab 6203) was 10%. For the same molecule, the IC50 ([2]; Ab 6203) was over 57 µM, the “Max (maximum inhibition observed at concentrations tested)” value ([2]; Ab 6501) was 20% and the IC50 ([2]; Ab 6501) was over 57 µM. For the same molecule, the “Max (maximum inhibition observed at concentrations tested)” value ([2]; Ab 6509) was 20%, the IC50 ([2]; Ab 6509) was over 16 µM and the “Max (maximum inhibition observed at concentrations tested)” value ([2]; Ab 6626) was 18%. For the same molecule, the IC50 ([2]; Ab 6626) was over 57 µM, the “Max (maximum inhibition observed at concentrations tested)” value ([2]; Ab 6632) was 20% and the IC50 ([2]; Ab 6632) was over 57 µM. For the same molecule, the “Max (maximum inhibition observed at concentrations tested)” value ([2]; Ab 6641) was 20%, the IC50 ([2]; Ab 6641) was over 16 µM and the “Max (maximum inhibition observed at concentrations tested)” value ([2]; Ab 6644) was 10%. For the same molecule, the IC50 ([2]; Ab 6644) was over 57 µM, the “Max (maximum inhibition observed at concentrations tested)” value ([2]; Ab 6652) was 40% and the IC50 ([2]; Ab 6652) was over 16 µM. For the same molecule, the “Max (maximum inhibition observed at concentrations tested)” value ([2]; Ab 6701) was 10%, the IC50 ([2]; Ab 6701) was over 16 µM and the “Max (maximum inhibition observed at concentrations tested)” value ([2]; Ab 7008) was 20%. For the same molecule, the IC50 ([2]; Ab 7008) was over 57 µM, the “Max (maximum inhibition observed at concentrations tested)” value ([2]; Ab 7015) was 10% and the IC50 ([2]; Ab 7015) was over 57 µM. The “Max (maximum inhibition observed at concentrations tested)” value ([2]; Ab 7101) was 5%, the IC50 ([2]; Ab 7101) was over 57 µM and the “Max (maximum inhibition observed at concentrations tested)” value ([2]; Ab 7104) was 10%. The IC50 ([2]; Ab 7104) was over 57 µM and the “Maximum O.D.” value (rabbit anti-β2GPI) was 1.873.
